B1: UL31^(22-42) peptide (middle of the UL31 MPR) (peptide)
peptide: Ac-RRSRSSAAGGTLGVVRRASRK-NH2
B2: UL31^(41-50) peptide (UL31 mini-MPR) (peptide)
peptide: Ac-RKSLPPHARK-NH2

Molecular target: T1, UL34^(174-194) peptide, unlabelled (HSV-1, UniProt P10218 174-194, N-terminal acetyl; C-terminal amide)
T1 peptide: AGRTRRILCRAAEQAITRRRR
Assay: cross-linking

Binder	binding result
B1	binds
B2	binds
